The text below walks through data of patent CN104231083A (GMAX BIOPHARM CO LTD, dated 2014).

B1: 单克隆抗体A-2 (antibody, V domains shown)
VH: QIQLVQSGPELKKPGETVKISCKASGYTFTNYGMNWVKQAPGKGLKWMGWINTYNGEPTYADDFKGRCAFFLETSASTAYLQLNNLKNEDTATYFCTREYYISNYGAMDYWGQGTSVTVSS
VL: DIQMTQTTSSLSASLGDRVTISCRASQDISNYLNWYQQKPDGTVKLLIYYTSRLHSGVPSRFSGSGSGADYSLTIANLDQEDIATYFCQQGILFPLTFGAGTKLELK
notes: Mouse monoclonal antibody; Tested as hybridoma supernatant (FACS) and as purified antibody / antibody supernatant (cAMP assay); also called L2H2
B2: 单克隆抗体A-3 (antibody, V domains shown)
VH: EVKLVESGGGLVQPGGSRKLSCAASGFPFSDYGLAWFRQAPGKGPEWVAFISNLAYSTYYADTVTGRFTISRENAKNTLFLEMSSLRSEDTAMYYCARDRGLFDYWGQGTTLTVSS
VL: DVVMTQIPLSLPVSLGDQASISCRSSQSLVHSNGNTYLHWYLQKPGQSPKLLIYKVSNRFSGVPDRFSGSGSGTDFTLKISRVEAEDLGVYFCSQSTHVPPYTFGGGTKLEIKR
notes: Mouse monoclonal antibody; Tested as hybridoma supernatant (FACS) and as purified antibody / antibody supernatant (cAMP assay); also called L3H3
B3: 单克隆抗体A-1 (antibody, V domains shown)
VH: QIQLVQSGPELKKPGETVKISCKASGYTFTNYGMNWVKQAPGKGLKWMGWINTNTGEPTYVEEFKGRFAFSLETSDSTAYLQINNLKNEDTATYFCANLYWGQGTTLTVSS
VL: DVLMTQTPLSLPVSLGDQASISCRSSQNILHSNGNTYLEWYLQKPGQSPKLLIFKVSNRFSGVPDRFSGSGSGTDFTLKISRVEAEDLGVYYCFQGSHVPWTFGGGTKLEIK
notes: Mouse monoclonal antibody; Tested as hybridoma supernatant (FACS) and as purified antibody / antibody supernatant (cAMP assay); also called L1H1

This assay deals with T1, 人胰高血糖素受体 (human glucagon receptor) (human, UniProt P47871 26-477).
T1 construct: Overexpressed on stably transfected CHO-DHFR- cells; also called hGCGR; GCGR
T1 sequence (P47871 26-477 limits assumed): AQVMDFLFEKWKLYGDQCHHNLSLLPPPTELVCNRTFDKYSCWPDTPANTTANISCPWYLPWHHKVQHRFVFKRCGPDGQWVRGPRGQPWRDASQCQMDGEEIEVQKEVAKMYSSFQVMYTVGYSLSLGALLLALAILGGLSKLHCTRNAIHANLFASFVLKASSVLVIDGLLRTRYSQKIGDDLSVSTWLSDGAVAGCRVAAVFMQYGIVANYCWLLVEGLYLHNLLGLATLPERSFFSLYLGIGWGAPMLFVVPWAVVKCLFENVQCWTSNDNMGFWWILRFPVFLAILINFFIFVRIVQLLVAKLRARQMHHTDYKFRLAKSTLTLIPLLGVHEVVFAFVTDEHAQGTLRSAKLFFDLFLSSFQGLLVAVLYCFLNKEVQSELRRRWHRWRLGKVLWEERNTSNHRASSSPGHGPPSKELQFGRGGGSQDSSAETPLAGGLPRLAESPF
As to the kind of experiment: flow cytometry, hybridoma supernatant on CHO-DHFR-hGCGR cells.
Take B1: the binding result is listed as “binds”.

Turning to B2, the binding result was “binds”.

On to B3, for which the binding result was “binds”.
